Assay results as given in patent US20260259223A1 (NORDIC BIOSCIENCE A S, published 2026).
Primed or numbered codes have the meaning given here. Where no end group is shown, it is not given here. Biotin′ = not defined here

B1: monoclonal antibody clone NBH-306-11 8E7-2C11-1F10-2C10 (antibody, mouse IgG1, kappa, V domains shown)
VH: EVKLVESGGDLVKPGGSLKLSCAASGFTFTSYAMSWVRQTPEKRLEWVASVTSGGTHYLDSVKGRFTISRDIARNILYLQMSSLRSEDTAMYFCARGVSFAYWGQGTLVTVSA
VL: DIVMTQSQKFMSTSVGDRVSVTCKASQNVGTDVVWYQQRPGQSPKALMYSASYRYSGVPDRFTGSGSGTDFTLTISNVQSEDLAEYFCQHYDNYPLTFGAGTKLELKR
notes: also called the mAb; C6A6 assay antibody
B2: Standard peptide (Selection peptide) DSGPEYADVV (peptide)
peptide: DSGPEYADVV
notes: Synthetic peptide from Genscript; also called C6A6

Tests used:
[1] = biological target: B2; assay: ELISA screening of hybridoma clones / specificity test
[2] = biological target: T1, Elongated standard peptide (Elongated selection peptide) QDSGPEYADVV (human); assay: competitive CLIA/ELISA (signal inhibition by two-fold diluted peptide)
T1 construct: also called elongated peptide
T1 peptide: QDSGPEYADVV
Protocol: (§1) The development of a competitive chemiluminescence immunoassay (CLIA) targeting the C6A6 target sequence included several preliminary optimizing experiments where reagents, concentrations, incubation-time and -temperature were analyzed by several tests. The final C6A6 competitive ELISA procedure was as follows: A 96-well streptavidin-coated white microplate (Greiner Bio-One, Kremsmünster, Austria) was coated with 3 ng/mL biotinylated synthetic peptide ([…]-K-Biotin (SEQ ID NO: 18)) dissolved in assay buffer (10 mM phosphate buffered saline (PBS), 1% bovine serum albumin, 0.1% Tween-20, 0.36% Bronidox, 4 g/L NaCl, adjusted to pH 7.4 at 20° C.) and incubated for 30 min at 20° C. with constant shaking (300 rpm) in darkness. Next, 20 μL/well of standard peptide (100 ng/ml) and samples were added to the appropriate wells, followed by the addition of 100 μL/well of HRP-labelled antibody (generated as described above) diluted in assay buffer to the concertation of 200 ng/ml and incubated for 1 h at 20° C. with constant shaking (300 rpm) in darkness. After each incubation step, wells were washed five times with standard washing buffer (20 mM Tris, 50 mM NaCl, pH 7.2). […] The relative light units were measured at all wavelengths within 5 min on a microplate luminometer reader (SpectraMax M5, Molecular Devices, CA, USA). […] Data were analyzed using the SoftMax Pro version 7.0.3 software.
(§2) Two-fold dilutions of four human serum and two rat serum samples were used to assess linearity. Linearity was calculated as a percentage of recovery of the undiluted sample. Antibody specificity was calculated as percentage of signal inhibition by two-fold diluted standard peptide ([…] (SEQ ID NO: 1)), elongated peptide ([…] (SEQ ID NO: 2)), truncated peptide ([…] (SEQ ID NO: 3)), and non-sense peptide ([…] (SEQ ID NO: 17)). The intra- and inter-assay variation was determined by 10 independent runs of five quality controls and two kit controls run in double determinations.

[3] = biological target: T2, Truncated standard peptide (Truncated selection peptide) SGPEYADVV (human); assay: as above
T2 construct: also called truncated peptide
T2 peptide: SGPEYADVV
Protocol: as §1, §2

[4] = biological target: T3, Non-sense standard peptide YRDDLKKLLE; assay: as above
T3 construct: also called non-sense peptide
T3 peptide: YRDDLKKLLE
Protocol: as §1, §2

[5] = biological target: T4, Non-sense coating peptide YRDDLKKLLE-Biotin; assay: CLIA/ELISA on a streptavidin plate coated with the non-sense coating peptide
T4 construct: also called non-sense coater
T4 peptide: YRDDLKKLLE-{Biotin′}

[6] = biological target: B1; assay: competitive CLIA: the free standard peptide competes with plate-coated …-K-Biotin for the HRP-labelled mAb (200 ng/mL)
Protocol: The development of a competitive chemiluminescence immunoassay (CLIA) targeting the C6A6 target sequence included several preliminary optimizing experiments where reagents, concentrations, incubation-time and -temperature were analyzed by several tests. […] The relative light units were measured at all wavelengths within 5 min on a microplate luminometer reader (SpectraMax M5, Molecular Devices, CA, USA). […] Data were analyzed using the SoftMax Pro version 7.0.3 software.
as §2

Binder	binding result [1]	binding result [2]	binding result [3]	binding result [4]	binding result [5]	IC50 [6]
B1	binds	no binding	no binding	no binding	no binding	–
B2	–	–	–	–	–	3.86 ng/mL
